Results: patent US20240041987A1, “NOVEL BIOACTIVE PEPTIDE COMBINATIONS AND USES THEREOF” (COLZYX AB, priority 2020, published 2024)
Where two headings read alike, the source gives them in different places.

How the values were obtained:
wound healing = conditions: cited from earlier work
microorganisms = conditions: cited from earlier work
[1] = 25 ± 2° C./60% RH ± 5%, 1 month
[2] = 25 ± 2° C./60% RH ± 5%, 3 months

Sequence: SFVARNTFKRVRNGFLMRKVAVFFSNTPTRASP (SFV33) [peptide derived from collagen VI alpha-3 chain]
- Wound healing activity? (wound healing): No
- Appearance (25 ± 2° C./60% RH ± 5%, 0 D): White powder
- Identity (RP-HPLC) (25 ± 2° C./60% RH ± 5%, 0 D): Retention Time Conforms
- Impurity (Report all ≥0.10%): RRT = 0.65 (25 ± 2° C./60% RH ± 5%, 0 D): 0.17%
- Impurity (Report all ≥0.10%): RRT = 1.02 (25 ± 2° C./60% RH ± 5%, 0 D): 0.23%
- No other individual impurity ≥0.50% (25 ± 2° C./60% RH ± 5%, 0 D): conforms
- Purity (RP-HPLC) (25 ± 2° C./60% RH ± 5%, 0 D): 98.1%
- Related Impurities (by RRT), Specified Impurity %: RRT = 0.90 (25 ± 2° C./60% RH ± 5%, 0 D): 0.26%
- Related Impurities (by RRT), Specified Impurity %: RRT = 0.95 (25 ± 2° C./60% RH ± 5%, 0 D): 0.14%
- Related Impurities (by RRT), Specified Impurity %: RRT = 0.97 (25 ± 2° C./60% RH ± 5%, 0 D): 0.47%
- Water Content (KF) (25 ± 2° C./60% RH ± 5%, 0 D): 4.7%
- Appearance [1]: White powder
- Identity (RP-HPLC) [1]: Retention Time Conforms
- Impurity (Report all ≥0.10%): RRT = 0.66 [1]: 0.13%
- Impurity (Report all ≥0.10%): RRT = 0.85 [1]: 0.11%
- Impurity (Report all ≥0.10%): RRT = 1.02 [1]: 0.31%
- Impurity (Report all ≥0.10%): RRT = 1.04 [1]: 0.17%
- Impurity (Report all ≥0.10%): RRT = 1.08 [1]: 0.24%
- No other individual impurity ≥0.50% [1]: conforms
- Purity (RP-HPLC) [1]: 97.8%
- Related Impurities (by RRT), Specified Impurity %: RRT = 0.90 [1]: 0.24%
- Related Impurities (by RRT), Specified Impurity %: RRT = 0.95 [1]: 0.13%
- Related Impurities (by RRT), Specified Impurity %: RRT = 0.97 [1]: 0.47%
- Water Content (KF) [1]: 6.8%
- Appearance [2]: White powder
- Identity (RP-HPLC) [2]: Retention Time Conforms
- Impurity (Report all ≥0.10%): RRT = 0.62 [2]: 0.15%
- Impurity (Report all ≥0.10%): RRT = 0.84 [2]: 0.28%
- No other individual impurity ≥0.50% [2]: Not conforms *
- Purity (RP-HPLC) [2]: 96.9%
- Related Impurities (by RRT), Specified Impurity %: RRT = 0.90 [2]: 0.20%
- Related Impurities (by RRT), Specified Impurity %: RRT = 0.95 [2]: 0.09%
- Related Impurities (by RRT), Specified Impurity %: RRT = 0.97 [2]: 0.42%
- Water Content (KF) [2]: 8.4%
- change in purity during the initial 3 months (stored at 25° C.): slight decrease in purity
- new impurities (stored at 25° C., at 3 months): some new impurities were detected
- change of water content (stored at 25° C., over the 3 months): increased
- Appearance (−20 ± 5° C., 0 D): White powder
- Identity (RP-HPLC) (−20 ± 5° C., 0 D): Retention Time Conforms
- Impurity (Report all ≥0.10%): RRT = 0.65 (−20 ± 5° C., 0 D): 0.17%
- Impurity (Report all ≥0.10%): RRT = 1.02 (−20 ± 5° C., 0 D): 0.23%
- No other individual impurity ≥0.50% (−20 ± 5° C., 0 D): conforms
- Purity (RP-HPLC) (−20 ± 5° C., 0 D): 98.1%
- Related Impurities (by RRT), Specified Impurity %: RRT = 0.90 (−20 ± 5° C., 0 D): 0.26%
- Related Impurities (by RRT), Specified Impurity %: RRT = 0.95 (−20 ± 5° C., 0 D): 0.14%
- Related Impurities (by RRT), Specified Impurity %: RRT = 0.97 (−20 ± 5° C., 0 D): 0.47%
- Water Content (KF) (−20 ± 5° C., 0 D): 4.7%
- Appearance (−20 ± 5° C., 1 month): White powder
- Identity (RP-HPLC) (−20 ± 5° C., 1 month): Retention Time Conforms
- Impurity (Report all ≥0.10%): RRT = 1.03 (−20 ± 5° C., 1 month): 0.24%
- No other individual impurity ≥0.50% (−20 ± 5° C., 1 month): conforms
- Purity (RP-HPLC) (−20 ± 5° C., 1 month): 98.3%
- Related Impurities (by RRT), Specified Impurity %: RRT = 0.90 (−20 ± 5° C., 1 month): 0.23%
- Related Impurities (by RRT), Specified Impurity %: RRT = 0.95 (−20 ± 5° C., 1 month): 0.10%
- Related Impurities (by RRT), Specified Impurity %: RRT = 0.98 (−20 ± 5° C., 1 month): 0.44%
- Water Content (KF) (−20 ± 5° C., 1 month): 4.9%
- Antimicrobial activity? (microorganisms): Yes
